± gives the standard deviation.
Test: protein stability index of a GFP-peptide fusion (GPS, HEK-293T) (PSI 1-6); higher = more stable
[1] = treatment: DMSO, c terminus: a fixed tail appended
[2] = treatment: MLN4924 1 uM, 8 h, c terminus: a fixed tail appended
[3] = treatment: DMSO, c terminus: native
[4] = treatment: MLN4924 1 uM, 8 h, c terminus: native
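Further: 24-mer peptide tiles fused after GFP, lentivirally expressed, FACS-sorted into six equal bins by GFP/DsRed ratio, decoded by Illumina sequencing, PSI is the read-weighted mean bin number.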

Row | Sequence | protein stability index [1] | protein stability index [2] | protein stability index [3] | protein stability index [4]
1 | CAKYTYPVCSALLDPVLQAPGTGP [FANCE] | 2.65 ± 0.14 | 2.26 ± 0.17 | – | –
2 | CDLFDREIVVTISWAKSIPGFSSL [ESRRA] | 3.28 ± 0.16 | 2.97 ± 0.4 | – | –
3 | CEGRRTRFRSCNTEDCPTGSALTF [ADAMTS4] | 3.42 ± 0.18 | 3.29 ± 0.092 | – | –
4 | CEMEQQSQEYQILLDVKTRLEQEI [KRT16] | 4.1 ± 0.39 | 4.11 ± 0.37 | – | –
5 | CGINANDVKKLEEAGFHTVEAVAY [RAD51] | 2.58 ± 0.25 | 2.47 ± 0.22 | – | –
6 | CMFCNEEFLGNRSVILNHMAREHA [ZNF277] | 3.62 ± 0.38 | 3.52 ± 0.46 | – | –
7 | CQECGKTFRVSSDLIKHQRIHTEE [ZNF75A] | 5.26 ± 0.4 | 5.41 ± 0.31 | – | –
8 | CQGQRLFEKLLQLTSQNIEIKLVS [PLD5] | 2.35 ± 0.19 | 2.29 ± 1.3 | – | –
9 | CQVEVRLLLAYNSSARIPKCPWME [INTS4] | 3.21 ± 0.91 | 3.1 ± 0.25 | – | –
10 | CSKQSGSFRKFRYGYNNVVTIPAG [ADAMTS4] | 2.3 ± 0.44 | 2.23 ± 0.35 | – | –
11 | CSPALKRSHSDSLDHDIFQLIDPD [CDC25A] | 3.76 ± 0.34 | 3.72 ± 0.41 | – | –
12 | CSYVVTRTISCHVQNGTYLQRVLQ [EMID1] | 2.44 ± 0.53 | 2.6 ± 0.36 | – | –
13 | CVADNTNLYVFGGYNPDYDESGGP [KLHDC10] | 3.26 ± 0.14 | 3.18 ± 0.34 | – | –
14 | CWDMYRHDIDCQWVDITDVPPGDY [LOXL2] | 2.7 ± 0.36 | 3.11 ± 0.3 | – | –
15 | CWQGDPRVRPTFQEITSETEDLCE [RIPK4] | 4.44 ± 0.67 | 4.72 ± 0.24 | – | –
16 | DALGMDPMMEHEMGGHHPGADYPV [CTNNB1] | 4.51 ± 0.36 | 4.55 ± 0.16 | – | –
17 | DAQGSEMVTCKSEFYHDEFKRWIY [GAN] | 2.61 ± 0.46 | 2.52 ± 0.13 | – | –
18 | DDTPEVLNRALSNLSSRWKNWWVR [CDS2] | 2.89 ± 0.058 | 3.12 ± 0.25 | – | –
19 | DEDEVAAEEPNAAVPDEIPPLEGD [HSP90AB1] | 5.49 ± 0.47 | 5.61 ± 0.24 | – | –
20 | DEHIASEEPAEKEDLLQQMLERRY [CLCN6] | 5.03 ± 0.2 | 4.98 ± 0.16 | – | –
21 | DEIEFLKKLHEEELRDLQVSVESQ [PRPH] | 3.58 ± 0.7 | 4.07 ± 0.36 | – | –
22 | DFANTIPGHGGIMDRFDCQYLMAT [CDS1] | 2.42 ± 0.21 | 2.63 ± 0.42 | – | –
23 | DFCKVFLISGVTLDNCVEVGRIAN [KLHL13] | 2.47 ± 1.2 | 2.12 ± 0.47 | – | –

Row | Sequence | protein stability index [1] | protein stability index [2] | protein stability index [3] | protein stability index [4]
24 | DFFWNETWYLKTIDICHDHFGWYL [DHCR7] | 3.26 ± 0.74 | 2.81 ± 0.35 | – | –
25 | DGEVPQHAGKKGKLSEHLRYCDSI [BRD3] | 4.59 ± 0.23 | 4.76 ± 0.23 | – | –
26 | DGLREQLQAPVPPDSVPSLQNMGL [PBXIP1] | 4.45 ± 0.1 | 4.4 ± 0.15 | – | –
27 | DIELDAARGDAVCTACGSVLEDNI [BRF1] | 4.88 ± 0.15 | 5.01 ± 0.37 | – | –
28 | DIEMSMRGDIFERIVHLQETCDLG [NLN] | 3.26 ± 0.47 | 3.22 ± 0.36 | – | –
29 | DIKICALGEEWSLHKIYLCQSGYF [GMCL1] | 2.91 ± 0.62 | 2.62 ± 0.49 | – | –
30 | DITVSVSTSFLPELSSVHPPHYFF [FBXO3] | 2.79 ± 0.48 | 2.63 ± 0.58 | – | –
31 | DKFVIVDCRYPYEYEGGHIKTAVN [CDC25B] | 2.48 ± 0.28 | 2.21 ± 0.23 | – | –
32 | DKSEYLEMEEGVKESLCAKEEKCQ [KCNA4] | 5.68 ± 0.1 | 5.54 ± 0.19 | – | –
33 | DKYVGVSSDSVGGFRYSERYDPEP [CLINT1] | 4.22 ± 0.23 | 4.27 ± 0.35 | – | –
34 | DLESQVESLREELICLKKNHEEEV [KRT34] | 4.86 ± 0.24 | 5.13 ± 0.16 | – | –
35 | DLLKKAKFHHSDCLSTWLLHFIAT [RHOBTB3] | 2.37 ± 0.44 | 2.34 ± 0.41 | – | –
36 | DLLSCSNFAVQHRYLFEEDNLLRS [MATN2] | 2.42 ± 0.18 | 2.43 ± 0.47 | – | –
37 | DLPSSLLLPEDMALRNLPPLRAAH [SMG5] | 3.56 ± 0.29 | 3.44 ± 0.16 | – | –
38 | DLSVPLMDVGETAMVTADSKYCYG [FKBP8] | 4.1 ± 0.31 | 4.44 ± 0.22 | – | –
39 | DMERFMEEMRELRRKIRELQLRYS [BEX5] | 2.44 ± 0.36 | 2.56 ± 0.6 | – | –
40 | DMKYGIYAVENEHMNRLQSQRAML [VTI1B] | 2.72 ± 0.25 | 2.93 ± 0.31 | – | –
41 | DQEPLLSIDLGTAHSAAVTASGDC [NEK8] | 5.07 ± 0.32 | 5.17 ± 0.26 | – | –
42 | DRDPNSLLISCAVSYRGAWWYRNC [TNXB] | 2.83 ± 0.24 | 2.77 ± 0.98 | – | –
43 | DREVDAATSATSHTRSLNSIIHQM [FBF1] | 4.09 ± 0.15 | 4.21 ± 0.28 | – | –
44 | DSSNPYPNFNFNISHQGDYAVLAA [AASDHPPT] | 3.24 ± 0.36 | 3.42 ± 0.41 | – | –
45 | DSTLSYTETEATNSLITAPGEFSD [SMAD6] | 5.34 ± 0.2 | 5.39 ± 0.17 | – | –
46 | DSTWLLLRRIRAESGTKGLFAGFL [SLC25A39] | 2.63 ± 0.67 | 2.58 ± 0.53 | – | –

Row | Sequence | protein stability index [1] | protein stability index [2] | protein stability index [3] | protein stability index [4]
47 | DTKGKPTSRTQVYKPPALKKSNSP [ZC2HC1A] | 4.89 ± 0.22 | 4.94 ± 0.18 | – | –
48 | DTRLGQVSALPLPPAMKRYLLYQ [SPSB2] | – | – | 2.4 ± 0.42 | 2.69 ± 0.3
49 | DTRSGFWYVCRTQGVEGDHCVTSD [TRIM35] | 2.89 ± 0.31 | 3.08 ± 0.34 | – | –
50 | DVGENLTVPDEFTVEERQTGMWWR [SLC25A25] | 4.18 ± 0.14 | 4.16 ± 0.28 | – | –
51 | DYELLQMLQIVVGVRDSGSPPLHA [PCDHGC5] | 2.3 ± 0.41 | 2.18 ± 0.17 | – | –
52 | DYSREVNTTEELEALITDPDEMRM [FEM1A] | 5.11 ± 0.21 | 5.17 ± 0.18 | – | –
53 | EAFKKHSLDLLSKERELNGKLRHL [CCDC89] | 3.34 ± 0.25 | 3.38 ± 0.14 | – | –
54 | EAMLYHNQTAELRELLEFTHMYLQ [P3H4] | 2.48 ± 0.37 | 2.69 ± 0.62 | – | –
55 | EDDDWGEDTTEEAQRRRMDEISDH [EIF5] | 5.59 ± 0.24 | 5.34 ± 0.18 | – | –
56 | EDERVVGKEQGQNLARQWNNCAFL [RAP1B] | 4.23 ± 0.23 | 4.09 ± 0.25 | – | –
57 | EDGVWYSVAPMNVRRGLAGATTLG [KLHL12] | 3.17 ± 0.23 | 3.3 ± 0.17 | – | –
58 | EDIVFETDHILESLYRDIRDIQDE [STX11] | 4.08 ± 0.12 | 4.31 ± 0.14 | – | –
59 | EDNEREGTENGAIDAVPVDENLFT [ZC3H15] | 5.54 ± 0.15 | 5.68 ± 0.23 | – | –
60 | EDWVLLGMANGQQWLQSTSGSQRH [TLE6] | 3.41 ± 0.5 | 3.2 ± 0.4 | – | –
61 | EEDGGADEHEHPLTSELDPEKEQE [MIA2] | 5.4 ± 0.57 | 5.5 ± 0.37 | – | –
62 | EEEKEWAFEESKIDEHHFVAVALR [AASDHPPT] | 3.73 ± 0.37 | 3.84 ± 0.42 | – | –
63 | EEYTTGMADCILVNSQFTAAVFKE [ALG2] | 3.21 ± 0.27 | 3.26 ± 0.24 | – | –
64 | EFEAVVRQAELAIERCIFPERIYQ [PI4K2A] | 2.43 ± 0.37 | 2.33 ± 0.41 | – | –
65 | EFNHTGELLATGDKGGRVVIFQRE [PPP2R2B] | 3.18 ± 0.24 | 3.19 ± 0.22 | – | –
66 | EFVVRCFACPSQALFFKNIMNIID [KCNA4] | 2.4 ± 0.78 | 2.12 ± 0.55 | – | –
67 | EGGWWKAISLSTGRESYIPGICVA [SLA] | 2.03 ± 0.91 | 2.05 ± 0.52 | – | –
68 | EGPSVVKRPAPRTAPRQEKHERTH [SPRY1] | 5.17 ± 0.29 | 5.13 ± 0.2 | – | –
69 | EGRLRYPSRREPPPRRSRSRSHDR [CLK3] | 5.33 ± 0.31 | 5.45 ± 0.1 | – | –

Row | Sequence | protein stability index [1] | protein stability index [2] | protein stability index [3] | protein stability index [4]
70 | EGSLWAVGTESQGRDWRHLPTITS [PXN] | 3.23 ± 0.16 | 3.34 ± 0.16 | – | –
71 | EGVAGKSGLEKEVQRLTSRAARDY [FCHSD1] | 4.69 ± 0.039 | 4.84 ± 0.09 | – | –
72 | EILRYMKEFTLLLSAANVCLDPII [P2RY14] | 2.44 ± 0.47 | 2.26 ± 0.31 | – | –
73 | EILTKESNVQEVRCPVTVCGDVHG [PPP2CA] | 3.69 ± 0.57 | 3.79 ± 0.12 | – | –
74 | EILYPALPTDGSTGVELAPRSAEP [PCDHGA10] | 4.57 ± 0.23 | 4.85 ± 0.1 | – | –
75 | EKPLGRVGVFLDFESGSVSFLNVT [TRIM43] | 2.28 ± 0.33 | 2.17 ± 0.55 | – | –
76 | EKQIRSFLIEGPLINTIRVVCASY [PLEKHN1] | 3.13 ± 0.74 | 2.79 ± 0.48 | – | –
77 | ELDYLMDVLVGTQALERPPGPGR [SERTAD1] | – | – | 2.23 ± 0.26 | 2.67 ± 0.58
78 | ELPAPAEVAAKNQSLEGDTTKGTS [MLH1] | 5.61 ± 0.14 | 5.59 ± 0.16 | – | –
79 | ELQNQLAACTRALESSEELLETAN [FSD1] | 4.24 ± 0.37 | 4.37 ± 0.39 | – | –
80 | ELRNMCDEHIASEEPAEKEDLLQQ [CLCN6] | 5.38 ± 0.18 | 5.45 ± 0.12 | – | –
81 | ELSRQVRSSVELELERCRQQAGLL [PPEF2] | 3.23 ± 0.25 | 3.2 ± 0.39 | – | –
82 | ELVLPFQELQIDDNEYAYLKAIIF [HNF4A] | 2.16 ± 0.14 | 2.37 ± 0.35 | – | –
83 | EMQLSEVQIKTWFQNRRMKHKRQM [VENTX] | 3.26 ± 0.16 | 3.19 ± 0.37 | – | –
84 | ENEKDRADQTVLTEDEKKELENLA [CHGB] | 5.54 ± 0.19 | 5.75 ± 0.18 | – | –
85 | ENFDHNTLALILQIPTQNTQARQV [PPFIA4] | 2.58 ± 0.21 | 2.81 ± 0.45 | – | –
86 | ENNYYWSASECMQDFNTMFTNCYI [BRD3] | 2.28 ± 0.67 | 2.49 ± 0.44 | – | –
87 | ENQSPSSSNYFSPRESTDFSSSSQ [ZBTB22] | 5.12 ± 0.31 | 4.96 ± 0.34 | – | –
88 | EPANLDILDTAGQAEFTAMRDQYM [RIT1] | 4.83 ± 0.24 | 4.67 ± 0.2 | – | –
89 | EPFSARVLVLCVFNSILPGVLILF [SOAT1] | 3.05 ± 0.14 | 3.06 ± 0.22 | – | –
